A short description of this series: label from the status in PepcDB records.

For “MTQWASWKQAIVSLAMLVSFSLFGQQNVQTPPEVVQARFIGNETCIDCHQVEVEAWQGSHHDMAMRHADSESVLGNFDNQAVEHQGKANRFYRKGDEYWVNIQGPDGQWHDYKISYTFGWVPLQQYMVEFDDGRIQLIPFAWDSRSVEQGGQRWFHLYPDTTTTDEFYWTNTGQNWNFMCADCHSTNLKKNYDAQSNTYQTTWSEINVSCEACHGPASLHVEMAKQAKQNGMPIATANHYGFSRDLSAAVKEWVYKEGHSTLQPKDIVPTNQVQTCAQCHSRRTQLNEEADHVKGAFLDKYRLSLITPELYYHDGQIYDEDYVYGSFLQSAMAEKGVTCTNCHDPHSAQLKIPEEAVCAQCHVASDYLPENHTFHQANTEASKCTTCHMPETTYMQVDPRRDHSWHVPRPDLSKHINTPNVCTACHDDKDAKWADEQIGQWFPKSKYRNTQHFSVAFYADAIGHRGGSDALAYTAQDSSISDIIRASALERMAGNTGQNTLVALARAVKHENEMIRLGAVAGSAGYDFSDRWQILQPLLSDPVLSVRTEAAAALVSHYGEMNPLQRERIQKPLDEYMDIQRFNADRGFGRTNLANVYRSLGEASKAIELYQQAIDIEPYFENSYVNLADMYRRQGDEAKAVQILNAGMKAQPKSSSLPYSAGLALLRQGNSKQANQYLKQAAESAKDNAQYWYVYGLALEKSDVLEASKALNKAFEVGGDPRHLYAQCEVLARNYRQGGVAFAFEQCTKQLGAHAPEEVIQQLKATVTTKK”, the protein production entry is “failed”.
“MTRAKDRLSAVQVKQSPAGKYADGGGLWLVKSSKDTGKWVLRAVVHGRRREMGLGSVSDVGLAEARKSADKWRTVVRAGGDPIKERARQKREAARNLHLLKHVAEDCFDAIKGNLRGQGKAGRWFSPLELHVLPKLGKVPVADLDQVDIRDTLKPLRDTKFETMRKALNRLDMVVRHAAALGLDVDTQVVDKAKALIGASQHKAVNIPAMPWHEVPGFYQSLSVGSVTHLALRLLILTGVRSRPLRFLRVDHIAGDVWTIPADMMKGREGATGDFRVPLSKEALAVIEQAKRHARDGFLFPSLRRGVVSDMTLSRYMERRKLTARPHGFRSSLRDWLAECTDAPHEVAETVLGHKVGGAVERAYRRTDFIDQRAKLMERWADHCKVVQLVSAV”: the protein production result is on record as “failed”.
In the case of “MTRDLAPALQALSPLLGSWAGRGAGKYPTIRPFEYLEEVVFAHVGKPFLTYTQQTRAVADGKPLHSETGYLRVCRPGCVELVLAHPSGITEIEVGTYSVTGDVIELELSTRADGSIGLAPTAKEVTALDRSYRIDGDELSYSLQMRAVGQPLQDHLAAVLHRQR” it was “not failed”; in that of “MTRKQMKTLVNRLFIISTFLLTSVQSYANFIDISEQQINQYLATKLTEKFRMQDQIGIPGLFQLNYHLHNLTTQIGRTDANKVSLSGIIDGVLLLKGKSYDAQLNLNIDTTPYYDTKTGKLYLKDIRLLNYSASPEKYQDKLQAFLPLLVDGLSKMLNNTPIYTLDENKTQEALLKKFGKAIVIEQGKLSLQTALF”, “failed”.
With “MTRLAFVRKKEKNCGQCRICEVSCPMGIETENAEKYKGECISCIKCVEICPRYNMQLNFANQPVNPRYTSSLTVAGLFAVFSALSFLPSAKKIDTAKYNAIPSFADEDYQTDEENENINSSDNKQVETQQDYQAEIAQNNSQEANTSQNQISDQAQENAMTSKYQQNQSAAESYNSTETNQKSANVQSKTFEQAAENSQKTSLEKSQGSVQNSTYPVSSSNSSDESQQENVQANLSNATETSTQNFKVSNNTSETPKGISKIYKDGTYTGEGFGYRPGLVVEVTIKDDKITKIKIVSHNETQSFAQLPFEIIPQEIIQNQSTNVDIVSGATRTSYGIIMAVEDALNKAKIENESSLQN”, the protein production entry is given as “failed”.
In the case of “MTRNRRRIAFAAILAMATTAHAQQGQVLTTQDEIGGVYEGTFRGGLQHGTGTYRLPNGYEYSGEWVDGEIRGRGVARFPNGSVYEGSFAQGKPEGMGKITFSDGGTYEGEWSNGVINGQGVAVYANGVRYEGGFRDARHHGKGVMQSPGGYVYEGDWADGQKEGLGKITYPDGAVYEGGIVAGQRHGEGTLTLPDGLVYVGFWADGQINGKGTLTQANGDVYEGDLIAGRREGKGKVTYANGDVYQGDFTDDRREGQGIFTGTDGYSYAGSWVAGQIEGQGRVTYPDGSVYEGNFRADLADGQGKITYPDGSSYEGEWVAGVIEGTGTAIYANGIVYKGTFKNAKNHGQGVMTYADGYRYEGEWQDGVRHGQGKATYPDGSVYTGQYVNGQREGDGEIVMADGFRYKGQWQSGKISGIGVATYANGDIYEGHFRNGKRQGEGTMKYASGQEEKGNWDNGALTKGAAASDG” it was “failed”.
With “MTRPLRWWKRACPGAALRRDVNAFPPPSLAKLSAVFTIRRQPELDRRPQGASAGGALQALIAALPFALRPSRLSRQAKRPWTRACRRRLPATVGAGSLAAMDSAQPNTAAARYKSFAAFYPFYMTEHANPVSRRLHVVGTSLVIVCLVLGVFRDWRFFIAAPVIGYGFAWIGHFVFEKNRPATFKYPVYSLMGDFRLWFETVTGRRKF”, the protein production entry is “failed”.
In the case of “MTRPMPESIDERIKAALSKRGIDELYTHQYSAFQYVQKGESIVTVTPTASGKTLCYNLPVLQSIAQDETNRALYLFPTKALAQDQKSELNEIIDEMGIDIKSFTYDGDTSPAIRQKVRKAGHIVITNPDMLHSAILPHHTKWVSLFENLKYIVIDELHTYRGVFGSHVANVIRRLKRICRFYGSDPVFICTSATIANPKELGEQLTGKPMRLVDDNGAPSGRKHFVFYNPPIVNKPLNIRRSATAEVNELAKEFLKNKVQTIVFARSRVRVEIILSHIQELVKKEIGTKSIRGYRGGYLPKERREIERGLREGDILGVVSTNALELGVDIGQLQVCVMTGYPGSVASAWQQAGRAGRRHGESLIIMVANSTPIDQYIVRHPEYFFNRSPESARINPENLIILVDHLKCAAYELPFRADEEFGAMEVSDILEYLQEEAVLHRNGERYHWASESFPASNISLRSASQENVVIVDQSDIANVRIIGEMDRFSAMTLLHDEAIYLHEGVQYQVEKLDWDHKKAYVRKVDVEYYTDANLAVQLKVLEIDKTKEKSRTSLHYGDVTVNALPTIFKKIKMTTFENIGSGPIHLPEEELHTSAAWLEIKTADEDIGEKTLEQLLLGISNVLQHIVPVYIMCDRNDVHVVSQIKAAHTGLPTIFLYDHYPGGIGLAEEVFKRFSDINEAAKQLITHCPCHDGCPSCIGTEIEGIKAKERILQLLDQMSLEHHHHHH” it was “not failed”.
The result for “MTRSEQNPVLFLAPDNVLWLLYTAQKSGNQDTAIVRYRQSTDLGATWGEIGTLLDQPGTFIRQPITVLENGDWLLPVFYCRVQPGEKWVGNDDDSAVKISSDQGKTWREYPVPNSTGCVHMNITPLQDGTLLALYRSRWADFIYQSRSTDGGKTWSEPVATDLPNNNSSIQVTTLKNGHLALVFNHMSAADATDRRLSLYDEIEDEEDKASGAKMPEVQAGDRSAFWGAPRAPMTLAISEDGGKSWPYQRNIEVGDGYCMTNNSTEKLNREFSYPSVKQAPDGKLHVAFTYFRQAIKHVVVSEEWVKAGLEHHHHHH” reads “failed”; that for “MTRSQTRPRRQALAEILGLMGLLVAGGLLAGQGGQTLARSVGGLGGASAPMPSRPWHGSNHTPLPSRGDGMAALDHNLITAASIGDLDLVNRLLKAGASAQATDERGRTALLAAVYNRRGDVMLVLIQAGADVNRKDDEGNSPFLLAAATNQIDVVRLALSHGADLNSTDRYDGTALIAASQHGNVEIVKLLISAGVPVDRVNQLGWTALLEAIILGDGSSRYEDIVQALLDAGADANLADREGVTPSRHARERGYKTMVRMLMRARGH”, “failed”.
Consider “MTRSSNIPADATPNPHATAEQVAAARHDSKLAQVLYHDWEAENYDEKWSISYDQRCVDYARGRFDAIVPDEVIAQLPYDRALELGCGTGFFLLNLIQAGVARRGSVTDLSPGMVKVATRNGQALGLDIDGRVADAEGIPYDDDAFDLVVGHAVLHHIPDVELSLREVVRVLKPGGRFVFAGEPTTVGDGYARTLSTLTWRVVTNATKLPGLRGWRRPQGELDESSRAAALEALVDLHTFTPQDLQRIAHNAGAVEVQTATEEFTAAMLGWPLRTFECTVPPGRLGWGWARFAFTSWKTLGWVDANVWRHVVPKGWFYNVMITGVKPS”, for which the protein production entry is listed as “failed”.
With “MTRTEYLAELDKYLRKLPREDYHEAMEYYIEYFDEAGPDKESQVIDDLGNPKEAASEIISNVLGKHLATPEKTPKNRATIIGLTILSLFAAPIALPVLLALILFIIACLMLGLTAIFAAYIFGLAGILVAGVTLFESLTLIGSSIPAQAMGIGSALLCFGGGLLIWIIATAFLRFSGRAFVAFIKWISNKKGAQA”, the protein production entry was “failed”.
Turning to “MTRVDVVTRTLPPNEVSEANPWDTDRFWTVPNVLSVIRLIGVPIFLWLALGPRADGWAVAVLAVAGLTDWLDGRIARRWHQVSRIGQMLDPVADRLYIFATVIALTLRDVIPLWLVIVLIARDVCMACLMPALRTRGFTSLPVHFVGKAATFCLLYSFPLVLLGRFGTGGWTACRVLGWAFAVWGTGLYWWAFFLYLVQTIRIVRTLPRISSRGEYS”, the protein production entry is given as “failed”.
The result for “MTRYGLRARVITLTLAPTLIIGLLLSGFFSFNRYQDLEKQVITTGNSIIEPLAIASESHLLAESREAVRRLISYAHRKNSKLVRSIAVFDEHHELFVTSNFHPNFEALMFPKDKPIPKLGNSEIYENSLILRVPILSEGHYLSELSNENQGTKAIGYIAVEMDLSSLRLQQYQEVFSAFLVLILGLGLASVFASRLMHDVTQPITHMKNVVDRIRRGHLDVRIEGKMHGELDQLKNGINAMAVSLSEYHVEMQHSIDQATSDLRETLEQLEIQNVELDIAKKRAQEAARVKSEFLANMSHELRTPLNGVIGFTRQMLKTQLSNSQTDYLQTIEKSANNLLNIINDILDFSKLEAGKLALENIPFDFRESLEEVINLQATSAHEKGLEITLKVDPKIPPGLVGDPLRIQQILTNLVGNSIKFTERGNIDVSVEMRSQAGDSVELQFMVRDTGIGISERQQAQLFQAFSQADASISRRYGGTGLGLVITQKLVSQMGGEISLTSRLHQGSTFWFTLRLNSTEMPMSDLIEVELLTGKQLLLVEPNMQAASVTQQILSQEGILVTYRSSLPENEEHYDYVLLNLAANQTYDEQSVAAWIEQAKRMAPSVIMGTPSTELALADQIMTEHQIQCLTKPLSRRKLLQSLINEHVEAPQAITAPVETEESERLPLTVLAVDDNPANLKLISALLKERVETVTACSNGQQAVNLATEKKYDLIFMDIQMPLMDGVTACQNIKELELNKDTPVIAVTAHAMAGERDRLLAAGMDDYLTKPIEEHVLQQVLVHWNPNTCTESIGKVAPSYVDEPESEAPATAENTQPDVIIDWQAALKQSANKEDLAKDMLRMLIDFIPEVEEVVDHALEQDDYSREELIHVIHKLHGSSSYCGVPRLKSLCATLEHALRSGASIEEIEPEMFELQDEMIKVTTTAKLYLEQ” reads “failed”; that for “MTSAQKPVFSPSDLQTWLEIATEAVLAAGAEIFSLWGKVQQIQEKGRAGDLVTEADRQAEAIILEIIKRRCPDHAILAEESGQLGQVDNPFCWAIDPLDGTTNFAHSYPVSCVSIGLLIQDIPTVGVVYNPFRQELFRAATSLGATLNRRPIQVSTTASLDKSLLVTGFAYDRVKTLDNNYPEFCYLTHLTQGVRRSGSAAIDLIDVACGRLDGYWERGINPWDMAAGIVIVREAGGIVSAYDCSPLDLSTGRILATNGKIHQELSQALAATPQWFQQYAAARAQKI”, “failed”.
Consider “MTSFEDADTEETVTCLQMTVYHPGQLQCGIFQSISFNREKLPSSEVVKFGRNSNICHYTFQDKQVSRVQFSLQLFKKFNSSVLSFEIKNMSKKTNLIVDSRELGYLNKMDLPYRCMVRFGEYQFLMEKEDGESLEFFETQFILSPRSLLQENNWPPHRPIPEYGTYSLCSSQSSSPTEMDENES”, for which the protein production result is listed as “failed”.
With “MTSFLSFSAISAHPPTFSGASFRPRSFSPRLFKSCVKCTYAEAGLSSASWSAPIDIVADVKSERVVVLGGNGFVGSAICKAAISNGIEVVSVSRSGRPNFEDSWLDQVTWVTGDVFYLNWDEVLLGATAVVSTIGGFGNEEQMKRINGEANVTAVNAAKDFGVPKFVLITVHDYNLPPFILSNGYFTGKRNAEAELLSKYPTSGVVLRPGFIYGKRKVNGIEVPLDLVGEPLDKIYDSAERFIRPLRSLPASDLILAPPVNVDDLALAVINAVKDDDFFGIFTIEQIKEAAAKMRA”, the protein production result is listed as “failed”.

The values above are taken from a protein production outcome set (Wang et al. 2014).
